# Article PMC4264689, “Oligomerization, Conformational Stability and Thermal Unfolding of Harpin, HrpZPss and Its Hypersensitive Response-Inducing C-Terminal Fragment, C-214-HrpZPss” (PLoS ONE, 2014)
# B1: HrpZPss (harpin HrpZ from Pseudomonas syringae pv. syringae), full length (natural protein)
# chain: MQSLSLNSSSLQTPAMALVLVRPEAETTGSTSSKALQEVVVKLAEELMRNGQLDDSSPLGKLLAKSMAADGKAGGGIEDVIAALDKLIHEKLGDNFGASADSASGTGQQDLMTQVLNGLAKSMLDDLLTKQDGGTSFSEDDMPMLNKIAQFMDDNPAQFPKPDSGSWVNELKEDNFLDGDETAAFRSALDIIGQQLGNQQSDAGSLAGTGGGLGTPSSFSNNSSVMGDPLIDANTGPGDSGNTRGEAGQLIGELIDRGLQSVLAGGGLGTPVNTPQTGTSANGGQSAQDLDQLLGGLLLKGLEATLKDAGQTGTDVQSSAAQIATLLVSTLLQGTRNQAAA
# notes: Harpin HrpZ of Pseudomonas syringae pv. syringae, 34.7 kDa, 341 amino acids, full length; Forms polydisperse oligomers; the number of copies is not defined; also called full length HrpZPss; native HrpZPss; source: expressed and purified as described earlier [15]
# B2: C-214-HrpZPss (C-terminal fragment of HrpZPss with 214 amino acids) (domain or fragment)
# chain: LTKQDGGTSFSEDDMPMLNKIAQFMDDNPAQFPKPDSGSWVNELKEDNFLDGDETAAFRSALDIIGQQLGNQQSDAGSLAGTGGGLGTPSSFSNNSSVMGDPLIDANTGPGDSGNTRGEAGQLIGELIDRGLQSVLAGGGLGTPVNTPQTGTSANGGQSAQDLDQLLGGLLLKGLEATLKDAGQTGTDVQSSAAQIATLLVSTLLQGTRNQAAA
# notes: Harpin HrpZ of Pseudomonas syringae pv. syringae, C-terminal 214 residues (N-terminal 127 amino acids deleted); Cloned under the NdeI and EcoRI sites of pET 28a, which probably adds an N-terminal His6 tag with a thrombin site; Forms polydisperse oligomers; the number of copies is not defined; also called C-terminal 214 residues of HrpZPss; source: E. coli BL21 (DE3), pET 28a, purified (Ni-NTA, …)
# Biological target: the molecule itself
# Test: native gel or EMSA; native PAGE of the purified proteins in solution; multiple bands / broad smear taken as polydisperse oligomers; gel conditions not given
row,Protein,binding result
1,B1,binds
2,B2,binds
